# Data published in the supplement of paper PMC10065799, “High-throughput profiling of sequence recognition by tyrosine kinases and SH2 domains using bacterial peptide display” (eLife, 2023).
# Legend:
# [1] = system: AncSZ; assay: phosphorylation enrichment, bacterial display (enrichment ratio); higher = better substrate or ligand; peptides without Tyr show the background
# [2] = target: EPHB1 (UniProt P54762); assay: as above
# [3] = target: EPHB2 (UniProt P29323); assay: as above
# [4] = target: FGFR1 (UniProt P11362); assay: as above
# [5] = target: FGFR3 (UniProt P22607); assay: as above
# [6] = system: Fer (mouse); assay: as above
# [7] = target: Fes (UniProt P07332); assay: as above
# [8] = target: Fyn (UniProt P06241); assay: as above
# [9] = target: Hck (UniProt P08631); assay: as above
# [10] = target: Jak2 (UniProt O60674); assay: as above
# [11] = target: MERTK (UniProt Q12866); assay: as above
# [12] = system: c-Abl (mouse); assay: as above
# [13] = system: c-Src; assay: as above
# [14] = target: Grb2 SH2 (UniProt P62993); assay: SH2 binding enrichment of the phosphorylated peptide, bacterial display (enrichment ratio); higher = better substrate or ligand; peptides without Tyr show the background
# [15] = target: SHP2-C SH2; assay: as above
# [16] = target: c-Src SH2; assay: as above
# 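Wherever SH2 binding enrichment of the phosphorylated peptide, bacterial display is given: peptide library displayed on the E. coli surface as eCPX fusions, selected cells deep-sequenced, score is each peptide's frequency after selection divided by its frequency in the input.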
# 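Wherever phosphorylation enrichment, bacterial display is given: 11-residue human phosphosite peptides and single-mutation variants displayed on the E. coli surface, counted by deep sequencing, each peptide's frequency after selection divided by its frequency in the unselected input library; frequency after pTyr selection over input frequency; kinase dosed for 20-30% of maximal phosphorylation in three min.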
# Sequence of EPHB2 (P29323 whole entry, looked up): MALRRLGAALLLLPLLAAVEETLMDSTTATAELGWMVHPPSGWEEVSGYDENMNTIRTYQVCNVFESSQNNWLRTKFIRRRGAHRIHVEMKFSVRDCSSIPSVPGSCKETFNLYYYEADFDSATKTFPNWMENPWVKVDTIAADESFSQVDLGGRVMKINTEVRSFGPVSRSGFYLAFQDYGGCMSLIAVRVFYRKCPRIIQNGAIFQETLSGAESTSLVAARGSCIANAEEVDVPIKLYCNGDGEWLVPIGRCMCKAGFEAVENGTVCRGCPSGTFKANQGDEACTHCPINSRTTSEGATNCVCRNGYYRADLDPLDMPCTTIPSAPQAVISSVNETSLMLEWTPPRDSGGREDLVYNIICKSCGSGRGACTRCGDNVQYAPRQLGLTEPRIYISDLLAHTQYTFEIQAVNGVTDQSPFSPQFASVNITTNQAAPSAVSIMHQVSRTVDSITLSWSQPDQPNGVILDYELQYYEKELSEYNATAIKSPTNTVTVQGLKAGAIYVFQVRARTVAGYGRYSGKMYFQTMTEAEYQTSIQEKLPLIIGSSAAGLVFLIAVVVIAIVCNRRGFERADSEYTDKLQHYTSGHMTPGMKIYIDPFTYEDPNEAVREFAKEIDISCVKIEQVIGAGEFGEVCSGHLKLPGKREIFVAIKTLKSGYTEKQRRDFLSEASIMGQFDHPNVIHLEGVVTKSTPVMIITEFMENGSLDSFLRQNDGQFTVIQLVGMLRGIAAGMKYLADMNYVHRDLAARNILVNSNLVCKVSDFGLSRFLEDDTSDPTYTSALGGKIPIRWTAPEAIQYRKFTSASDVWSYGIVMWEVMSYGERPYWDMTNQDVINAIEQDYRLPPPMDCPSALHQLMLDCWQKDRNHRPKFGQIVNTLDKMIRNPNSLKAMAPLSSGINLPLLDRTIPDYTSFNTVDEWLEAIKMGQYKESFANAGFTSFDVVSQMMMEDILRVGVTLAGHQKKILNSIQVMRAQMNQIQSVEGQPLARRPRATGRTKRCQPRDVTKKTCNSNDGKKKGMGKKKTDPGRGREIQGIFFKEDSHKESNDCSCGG
# Sequence of Grb2 SH2 (P62993 whole entry, looked up): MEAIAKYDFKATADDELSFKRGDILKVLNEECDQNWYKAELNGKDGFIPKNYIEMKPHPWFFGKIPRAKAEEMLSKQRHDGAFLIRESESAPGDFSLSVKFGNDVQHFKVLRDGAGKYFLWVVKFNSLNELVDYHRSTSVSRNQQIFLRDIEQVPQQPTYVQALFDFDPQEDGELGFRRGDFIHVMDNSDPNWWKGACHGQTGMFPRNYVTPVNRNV
# Sequence of MERTK (Q12866 whole entry, looked up): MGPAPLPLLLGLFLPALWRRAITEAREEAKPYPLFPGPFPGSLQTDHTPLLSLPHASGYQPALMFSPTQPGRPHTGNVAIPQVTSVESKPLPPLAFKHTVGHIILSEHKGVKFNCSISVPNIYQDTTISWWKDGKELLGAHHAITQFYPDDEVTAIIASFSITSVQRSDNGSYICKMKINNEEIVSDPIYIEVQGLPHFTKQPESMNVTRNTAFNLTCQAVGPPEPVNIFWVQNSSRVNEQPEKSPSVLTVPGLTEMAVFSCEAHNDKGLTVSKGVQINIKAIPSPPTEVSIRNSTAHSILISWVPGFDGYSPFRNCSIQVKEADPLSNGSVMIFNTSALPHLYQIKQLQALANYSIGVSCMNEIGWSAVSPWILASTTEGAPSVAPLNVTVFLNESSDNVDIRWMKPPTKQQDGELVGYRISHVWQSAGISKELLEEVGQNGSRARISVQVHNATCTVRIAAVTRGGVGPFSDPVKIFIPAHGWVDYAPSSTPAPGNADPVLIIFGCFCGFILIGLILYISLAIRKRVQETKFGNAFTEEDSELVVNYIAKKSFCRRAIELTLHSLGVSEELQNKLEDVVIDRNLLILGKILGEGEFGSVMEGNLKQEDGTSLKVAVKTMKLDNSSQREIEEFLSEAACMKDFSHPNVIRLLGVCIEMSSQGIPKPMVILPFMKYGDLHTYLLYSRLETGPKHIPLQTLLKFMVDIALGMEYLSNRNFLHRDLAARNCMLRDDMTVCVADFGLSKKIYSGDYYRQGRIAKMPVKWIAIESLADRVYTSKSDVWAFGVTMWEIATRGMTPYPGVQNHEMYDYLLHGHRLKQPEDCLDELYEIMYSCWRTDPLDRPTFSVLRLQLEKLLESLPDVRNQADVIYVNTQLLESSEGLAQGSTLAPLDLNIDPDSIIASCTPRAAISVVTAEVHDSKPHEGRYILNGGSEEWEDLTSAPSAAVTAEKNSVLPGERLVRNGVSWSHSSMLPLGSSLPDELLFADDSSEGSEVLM
# Sequence of Fes (P07332 whole entry, looked up): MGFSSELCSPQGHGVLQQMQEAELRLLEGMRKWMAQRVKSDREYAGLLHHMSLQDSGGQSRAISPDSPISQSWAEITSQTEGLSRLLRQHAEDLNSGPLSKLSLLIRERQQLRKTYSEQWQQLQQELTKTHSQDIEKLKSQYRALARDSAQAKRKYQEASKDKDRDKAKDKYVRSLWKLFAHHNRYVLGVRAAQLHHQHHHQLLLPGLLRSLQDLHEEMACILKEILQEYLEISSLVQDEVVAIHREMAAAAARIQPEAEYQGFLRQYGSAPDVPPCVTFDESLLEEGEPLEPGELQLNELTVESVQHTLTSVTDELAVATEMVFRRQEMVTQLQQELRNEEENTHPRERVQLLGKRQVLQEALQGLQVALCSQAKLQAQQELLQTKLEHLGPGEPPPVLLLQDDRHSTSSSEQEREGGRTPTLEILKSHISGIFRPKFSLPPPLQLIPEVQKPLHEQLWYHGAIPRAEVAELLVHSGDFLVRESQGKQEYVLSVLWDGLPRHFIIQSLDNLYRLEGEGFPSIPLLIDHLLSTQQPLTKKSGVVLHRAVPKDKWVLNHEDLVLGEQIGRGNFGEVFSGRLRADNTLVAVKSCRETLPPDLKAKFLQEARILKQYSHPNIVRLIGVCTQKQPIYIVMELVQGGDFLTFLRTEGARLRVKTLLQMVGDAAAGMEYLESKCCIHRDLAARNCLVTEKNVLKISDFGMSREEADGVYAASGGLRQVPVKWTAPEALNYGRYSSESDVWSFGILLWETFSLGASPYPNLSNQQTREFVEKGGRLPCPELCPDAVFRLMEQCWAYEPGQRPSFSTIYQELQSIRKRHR
# Sequence of FGFR3 (P22607 whole entry, looked up): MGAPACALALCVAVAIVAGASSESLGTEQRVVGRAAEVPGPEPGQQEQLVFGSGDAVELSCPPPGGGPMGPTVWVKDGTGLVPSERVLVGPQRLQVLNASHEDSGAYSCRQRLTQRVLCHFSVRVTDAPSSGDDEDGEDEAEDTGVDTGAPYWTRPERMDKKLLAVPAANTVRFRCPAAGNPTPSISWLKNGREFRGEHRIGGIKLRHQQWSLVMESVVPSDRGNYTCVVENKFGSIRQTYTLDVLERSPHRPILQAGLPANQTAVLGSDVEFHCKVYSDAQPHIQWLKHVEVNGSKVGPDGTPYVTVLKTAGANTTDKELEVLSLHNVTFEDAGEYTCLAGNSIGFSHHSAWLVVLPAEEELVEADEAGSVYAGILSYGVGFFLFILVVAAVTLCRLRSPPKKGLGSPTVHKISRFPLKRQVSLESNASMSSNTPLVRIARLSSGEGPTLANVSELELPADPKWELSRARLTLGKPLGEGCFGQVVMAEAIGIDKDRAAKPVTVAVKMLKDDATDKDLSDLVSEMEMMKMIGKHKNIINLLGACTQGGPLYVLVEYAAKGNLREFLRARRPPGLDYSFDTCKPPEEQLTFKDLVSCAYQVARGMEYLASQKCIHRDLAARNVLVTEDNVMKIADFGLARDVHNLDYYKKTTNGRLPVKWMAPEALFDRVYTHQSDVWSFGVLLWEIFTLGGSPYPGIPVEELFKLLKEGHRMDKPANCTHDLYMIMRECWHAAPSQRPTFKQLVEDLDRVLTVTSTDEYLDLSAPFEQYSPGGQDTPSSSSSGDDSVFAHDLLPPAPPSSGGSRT
# Sequence of Jak2 (O60674 whole entry, looked up): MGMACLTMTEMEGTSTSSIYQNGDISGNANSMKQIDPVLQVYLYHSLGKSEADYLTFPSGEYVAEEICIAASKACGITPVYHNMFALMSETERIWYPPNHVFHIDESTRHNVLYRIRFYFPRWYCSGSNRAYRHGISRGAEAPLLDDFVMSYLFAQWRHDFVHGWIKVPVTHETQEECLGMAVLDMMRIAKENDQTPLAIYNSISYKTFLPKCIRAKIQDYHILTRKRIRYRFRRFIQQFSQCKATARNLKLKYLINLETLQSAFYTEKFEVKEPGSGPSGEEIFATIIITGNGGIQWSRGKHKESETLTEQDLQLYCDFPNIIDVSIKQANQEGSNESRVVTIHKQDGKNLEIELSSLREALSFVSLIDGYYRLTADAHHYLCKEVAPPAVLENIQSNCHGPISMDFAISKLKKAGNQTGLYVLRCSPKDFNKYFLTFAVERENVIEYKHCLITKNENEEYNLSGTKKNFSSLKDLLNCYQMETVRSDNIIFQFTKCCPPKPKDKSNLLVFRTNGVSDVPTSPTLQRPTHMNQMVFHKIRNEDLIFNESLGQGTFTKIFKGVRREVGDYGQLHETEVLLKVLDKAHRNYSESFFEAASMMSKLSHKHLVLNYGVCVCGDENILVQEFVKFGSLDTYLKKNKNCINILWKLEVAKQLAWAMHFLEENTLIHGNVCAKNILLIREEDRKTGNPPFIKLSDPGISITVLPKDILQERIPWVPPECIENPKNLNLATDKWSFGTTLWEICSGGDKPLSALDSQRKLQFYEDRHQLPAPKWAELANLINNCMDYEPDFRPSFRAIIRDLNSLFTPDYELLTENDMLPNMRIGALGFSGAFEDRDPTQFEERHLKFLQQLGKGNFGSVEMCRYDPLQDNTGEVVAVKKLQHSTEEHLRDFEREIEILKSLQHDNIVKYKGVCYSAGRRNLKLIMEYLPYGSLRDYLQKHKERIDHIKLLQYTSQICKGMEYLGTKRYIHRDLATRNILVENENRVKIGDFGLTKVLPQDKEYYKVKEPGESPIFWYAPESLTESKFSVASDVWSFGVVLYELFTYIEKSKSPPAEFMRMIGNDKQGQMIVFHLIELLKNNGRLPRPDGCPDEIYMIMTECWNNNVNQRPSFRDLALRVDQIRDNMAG
Sequence,phosphorylation enrichment [1],phosphorylation enrichment [2],phosphorylation enrichment [3],phosphorylation enrichment [4],phosphorylation enrichment [5],phosphorylation enrichment [6],phosphorylation enrichment [7],phosphorylation enrichment [8],phosphorylation enrichment [9],phosphorylation enrichment [10],phosphorylation enrichment [11],phosphorylation enrichment [12],phosphorylation enrichment [13],SH2 binding enrichment [14],SH2 binding enrichment [15],SH2 binding enrichment [16]
IGRHAYGDQYR [IDH1_Y135],0.56,0.434,0.406,0.398,0.447,0.417,0.599,0.371,0.327,0.534,0.314,0.462,0.381,1.03,0.681,0.657
IHETTYKSIMK [ACTA1_Y281_N282K],0.364,0.324,0.33,0.373,0.472,0.372,0.583,0.309,0.359,0.692,0.331,0.458,0.384,0.804,3.31,0.55
IHHIDYFKKTT [FGFR1_Y653_YF],0.718,0.36,0.385,0.481,0.642,0.398,0.822,0.561,0.52,0.613,0.444,0.501,0.545,0.585,0.526,0.526
IIGNGYFFRVF [MYBPC3_Y1135_YF],0.844,0.433,0.461,0.334,0.538,0.394,0.98,0.258,0.33,0.956,0.28,0.692,0.288,0.815,0.766,0.453
IKELTYQMEED [MYH7_Y1852_T1854M],1.19,0.634,0.628,0.591,0.768,0.495,1.18,0.889,0.646,1.01,0.432,0.667,1.21,0.825,0.605,0.507
IKGIRYLHHQG [GUCY2D_Y656_R660Q],0.684,0.45,0.387,0.465,0.45,0.417,0.587,0.378,0.401,0.414,0.455,0.403,0.428,0.871,0.716,0.829
ILCTVYAFKMR [GRM3_Y754_T758M],1.46,0.97,0.568,0.503,0.89,0.553,1.47,0.567,0.55,1.09,0.47,0.883,0.65,0.979,1.1,0.718
ILGRFYETSSI [PAX2_Y73_G76S_YF],0.66,0.516,0.47,0.417,0.463,0.887,0.813,0.399,0.531,0.665,0.472,0.606,0.47,0.85,0.792,1.02
INITIYGKTFR [EFHC1_Y177],1.13,0.648,0.683,0.583,0.781,0.936,1.37,0.438,0.573,1.4,0.439,1.05,0.508,1.01,0.658,0.5
INSLKYAYNVS [EIF2B5_Y583_I587V],0.642,0.402,0.354,0.522,0.525,0.419,1.01,0.633,0.424,0.571,0.443,0.643,0.6,1.01,0.636,0.654
IPGVEYLVSII [TNC_Y1775],1.02,0.667,0.574,0.552,0.723,0.445,1.14,0.432,0.491,1.19,0.409,0.664,0.5,1,0.944,0.648
IQVDAYFSPIH [ADSL_Y432],1.17,0.738,0.75,0.638,0.772,0.652,1.33,0.605,0.684,2.15,0.551,0.936,0.484,0.797,0.529,0.604
IQVNAYFSPIH [ADSL_Y432_D430N],1.76,0.727,0.536,0.595,0.795,0.548,1.29,0.431,0.543,2.16,0.589,1.14,0.543,0.964,1.34,0.959
IRKAEYPFSSE [ATP2C1_Y452],0.595,0.414,0.341,0.392,0.424,0.366,0.758,0.363,0.404,0.594,0.341,0.454,0.365,0.89,0.598,0.471
ISDDNYGRIRL [ARCN1_Y310_K309N],0.554,0.521,1.21,0.407,0.428,1.32,0.516,0.704,1.83,0.525,0.344,0.402,0.885,1,0.77,0.518
ISGGGYRARPA [FGB_Y71],0.485,0.402,0.308,0.345,0.404,0.312,0.665,0.416,0.404,0.603,0.333,0.515,0.408,0.771,0.552,0.392
ISGLKYPVSQQ [BTK_Y375_R372G],0.529,0.501,0.529,0.428,0.459,0.371,0.548,0.441,0.448,0.516,0.474,0.392,0.407,0.879,0.63,0.417

Sequence,phosphorylation enrichment [1],phosphorylation enrichment [2],phosphorylation enrichment [3],phosphorylation enrichment [4],phosphorylation enrichment [5],phosphorylation enrichment [6],phosphorylation enrichment [7],phosphorylation enrichment [8],phosphorylation enrichment [9],phosphorylation enrichment [10],phosphorylation enrichment [11],phosphorylation enrichment [12],phosphorylation enrichment [13],SH2 binding enrichment [14],SH2 binding enrichment [15],SH2 binding enrichment [16]
ISSLDYISKTK [VAV3_Y294],0.703,0.626,0.463,0.505,0.513,0.386,0.696,0.559,0.447,0.495,0.537,0.478,0.487,0.762,0.73,0.419
ITKNPYDPPGR,0.657,0.457,0.428,0.427,0.645,0.437,0.766,0.432,0.454,0.662,0.424,0.556,0.433,0.868,0.622,0.513
IVRSLYKDLED [VHL_Y185_E186K],1.25,0.497,0.559,0.502,0.688,0.688,1.19,0.535,0.479,0.877,0.496,0.691,0.445,0.999,0.716,0.785
IYKAAYFGVYD [SLC25A4_Y191_R188K],1.17,1.4,1.32,0.628,0.745,0.893,1.05,6.16,5.77,0.993,1.4,0.865,5.18,0.923,1.11,2.31
KAEQLYIGVTV [EFHC2_Y509_E507Q],1.84,1.27,0.758,3.47,2.88,6.51,1.25,2.33,3.03,0.964,2.99,0.876,2.33,0.708,0.733,0.454
KAESWYQTKFE [KRT75_Y342_E337K_YF],0.873,0.567,0.482,0.468,0.538,0.594,1.07,0.518,0.543,0.871,0.6,0.839,0.662,0.915,0.72,0.991
KAIDMYLMGCF [GABRB2_Y308],1.27,0.566,0.551,0.504,1.04,0.486,1.21,0.515,0.535,1.04,0.425,1.06,0.75,0.823,0.648,0.44
KAIMIYVSSFY [ACTN4_Y260_T259I],0.963,0.47,0.52,0.464,0.701,0.422,1.08,0.368,0.416,1.03,0.347,0.972,0.465,0.816,0.845,0.476
KASRKYFAMKI [AKT3_Y173_G171R_YF],0.555,0.286,0.391,0.365,0.363,0.389,0.52,0.359,0.388,0.569,0.811,0.624,0.456,0.796,0.666,0.472
KDKLPYLFDDP [GPX2_Y125_P126L_YF],1.23,0.632,0.515,0.472,0.544,0.423,0.969,0.479,0.468,1.01,0.426,0.557,0.557,0.731,0.773,0.347
KEGSAYGSQSV [NFKB2_Y868_D865G],0.58,0.461,0.384,0.312,0.498,0.423,0.75,0.395,0.426,0.673,0.436,0.632,0.468,0.648,0.379,0.447
KEKLCYVAPDF [ACTA1_Y220_L223P],1.4,0.558,0.637,0.635,0.603,0.419,0.836,0.424,0.489,1.18,0.656,5.43,0.581,0.971,0.731,0.724
KELAKYFKLHH [AK7_Y390_N389K_YF],0.596,0.394,0.459,0.456,0.543,0.466,0.626,0.505,0.484,0.487,0.51,0.439,0.493,0.759,0.635,0.497
KELSNYKHLTL [SLIT2_Y776],0.571,0.494,0.409,0.501,0.43,0.423,0.528,0.417,0.384,0.543,0.443,0.522,0.368,0.721,0.634,0.503
KGIQLYDTPFE [SHB_Y297_YF],1.13,8.6,12.9,0.511,0.584,2.8,0.911,0.712,1.73,0.843,4.56,0.965,0.729,1.3,1.19,2.76
KGSLPYSLILD [PKD1L2_Y406_N407S],1.08,0.822,0.675,2.32,2.16,1.06,1.23,0.734,0.671,1.19,1.93,0.86,1.63,0.736,4.67,10.5
